We go through one molecule from patent US20120023600A1 (Novartis, published 2012).

One test has as its target T1, human DKK2 (human, UniProt Q9UBU2 34-259).
T1 construct: tested by immunoprecipitation
T1 sequence: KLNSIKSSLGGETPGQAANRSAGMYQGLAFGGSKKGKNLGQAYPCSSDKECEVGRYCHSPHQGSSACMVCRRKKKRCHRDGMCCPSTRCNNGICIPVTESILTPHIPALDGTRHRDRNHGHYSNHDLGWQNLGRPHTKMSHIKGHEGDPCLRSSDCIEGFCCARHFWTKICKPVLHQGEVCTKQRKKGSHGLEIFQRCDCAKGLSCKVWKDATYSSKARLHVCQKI
Put plainly: immunoprecipitation.

Test [1] has as its target T2, N-linked deglycosylated rhDKK1 (human, UniProt O94907 32-266, N-linked glycan removed with the enzyme PNGase F).
T2 construct: Same HIS-tagged HEK protein as WT rhDKK1 (Batch BTP7757) after PNGase F treatment; also called N-DEGLY DKK1; DKK1 (N-degly)
T2 sequence: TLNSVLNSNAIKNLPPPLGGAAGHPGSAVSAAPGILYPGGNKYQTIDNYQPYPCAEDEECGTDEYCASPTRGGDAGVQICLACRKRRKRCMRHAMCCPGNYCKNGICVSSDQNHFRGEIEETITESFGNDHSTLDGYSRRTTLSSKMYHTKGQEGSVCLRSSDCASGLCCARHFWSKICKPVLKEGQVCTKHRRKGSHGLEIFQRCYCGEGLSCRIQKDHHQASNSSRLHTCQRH
The test can be described thus: SPR (Biacore T100). Background: Surface plasmon resonance follows binding to a sensor surface in real time, without labels.

In test [2] the target is T3, wild type (WT) rhDKK1 (HEK HIS epitope tagged Batch# BTP7757) (human, UniProt O94907 32-266, N-glycosylated (one theoretical N-linked site at amino acid 256)).
T3 construct: Made in HEK cells; also called WT DKK1; rhDKK1 (recombinant human DKK1) (Batch BTP7757)
T3 sequence: T2 sequence
The test can be described thus: SPR (Biacore T100).

Test [3] addresses T4, recombinant human DKK1 (human, UniProt O94907 32-266).
T4 sequence: T2 sequence
Put plainly: cell-based or functional assay.

In test [4] the target is T2, N-linked deglycosylated rhDKK1. The test can be described thus: SPR (Biacore T100). This is another data set of the same source.
The target in test [5] is T5, human DKK4 (human, UniProt Q9UBT3 19-224).
T5 construct: also called Dickkopf-4
T5 sequence: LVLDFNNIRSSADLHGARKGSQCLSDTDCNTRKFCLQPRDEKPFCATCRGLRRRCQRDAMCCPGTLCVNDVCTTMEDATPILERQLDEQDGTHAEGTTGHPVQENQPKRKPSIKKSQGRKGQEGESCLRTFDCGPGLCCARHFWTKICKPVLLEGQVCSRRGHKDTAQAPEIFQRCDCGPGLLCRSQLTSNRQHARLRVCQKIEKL
Put plainly: SPR (Biacore T100).

The next test deals with T6, cynomolgus DKK1 (cynomolgus monkey (Macaca fascicularis), UniProt A0A7N9IE82 32-266).
T6 sequence: T2 sequence with H114N, T150S, S166T
The test can be described thus: cell-based or functional assay.

For a further test, the target named is T7, rat DKK1 (Novartis) (rat, UniProt A6I0Z0 32-270).
T7 sequence: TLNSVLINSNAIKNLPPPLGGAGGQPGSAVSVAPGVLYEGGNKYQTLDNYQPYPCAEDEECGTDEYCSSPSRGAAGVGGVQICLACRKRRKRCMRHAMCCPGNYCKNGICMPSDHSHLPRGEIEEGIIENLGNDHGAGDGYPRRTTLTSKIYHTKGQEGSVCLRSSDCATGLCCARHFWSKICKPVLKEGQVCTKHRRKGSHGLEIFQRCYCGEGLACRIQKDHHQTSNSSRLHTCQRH
Put plainly: cell-based or functional assay.

In test [6] the target is T4, recombinant human DKK1. The test can be described thus: cell-based or functional assay. The source holds these as a separate data set.
The target in another test is T8, mouse DKK1 (R&D Systems) (mouse, UniProt O54908 32-272).
T8 sequence (looked up): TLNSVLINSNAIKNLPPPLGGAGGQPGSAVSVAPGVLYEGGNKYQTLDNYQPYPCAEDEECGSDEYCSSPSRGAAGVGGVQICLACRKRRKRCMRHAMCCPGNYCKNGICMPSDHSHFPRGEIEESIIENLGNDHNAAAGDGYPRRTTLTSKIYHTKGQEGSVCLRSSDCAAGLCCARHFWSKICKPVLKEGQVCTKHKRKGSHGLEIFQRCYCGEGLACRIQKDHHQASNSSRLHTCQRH
Put plainly: cell-based or functional assay.

The next test concerns the target human DKK3 (human, UniProt Q9UBP4 22-350). The test can be described thus: SPR (Biacore T100); NSB = No Significant binding, not detectable above background.
Test [7] has as its target T9, carboxyl terminal truncated DKK1 (deltaC, residues 1-185) with C-terminal HA epitope (Homo sapiens (Human), UniProt O94907 32-185).
T9 construct: Secreted into conditioned medium of transfected Hek293 cells; Contains Cys-1 but not Cys-2
T9 sequence: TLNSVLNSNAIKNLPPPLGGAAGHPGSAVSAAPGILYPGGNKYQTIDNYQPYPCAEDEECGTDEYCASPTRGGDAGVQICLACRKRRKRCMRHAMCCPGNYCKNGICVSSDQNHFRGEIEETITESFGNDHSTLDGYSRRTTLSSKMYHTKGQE
Put plainly: immunoprecipitation from conditioned medium of transfected Hek293 cells, protein G beads, SDS-PAGE, anti-HA blot [panel B.]. The text has this: Full-length (FL, containing residues 1-266), carboxyl terminal truncated (ΔC, containing residues 1-185), and amino terminal truncated (ΔN, containing residues 1-60 plus residues 157-266), are fused with an HA epitope at their C termini, and Cloned into a mammalian expression vector under the control of the cytomegalovirus (CMV) promoter. […] 1/10 of total input is loaded as control.

In test [8] the target is T3, wild type (WT) rhDKK1 (HEK HIS epitope …). Put plainly: SPR, Biacore T100, CM5 chip; antibody captured on immobilised anti-human IgG1 Fc, rhDKK1 0.195-6.25 nM as analyte; 1:1 binding with mass transport; mean of three experiments with standard deviation [6B]. Here is the method: (§1) FIG. 6. […] Anti-Human IgG1 Fc (Jackson Immuno Research, Cat#109-006-098) is immobilized onto each flow cell, followed by capture of a lead candidate at an expected capture of about 100 RU. […] The normalized data (background subtracted) are fit to a 1:1 binding with mass transport model using Kinetics analysis in BIA evaluation 1.0 software. This experiment is carried out in triplicate, and data presented are the average of these three experiments with standard deviation.

The target of test [9] is T5, human DKK4. Put plainly: SPR (Biacore T100), antibody captured by anti-human IgG1 Fc, DKK in flow; average of three experiments. Here is the method: as §1
In test [10] the target is T3, wild type (WT) rhDKK1 (HEK HIS epitope …). The description is as above. Here is the method: as §1

Residue numbers refer to the chain shown, from its start.

Chain of human DKK3 (Q9UBP4 other isoform, or with tags, fused parts or gaps limits assumed): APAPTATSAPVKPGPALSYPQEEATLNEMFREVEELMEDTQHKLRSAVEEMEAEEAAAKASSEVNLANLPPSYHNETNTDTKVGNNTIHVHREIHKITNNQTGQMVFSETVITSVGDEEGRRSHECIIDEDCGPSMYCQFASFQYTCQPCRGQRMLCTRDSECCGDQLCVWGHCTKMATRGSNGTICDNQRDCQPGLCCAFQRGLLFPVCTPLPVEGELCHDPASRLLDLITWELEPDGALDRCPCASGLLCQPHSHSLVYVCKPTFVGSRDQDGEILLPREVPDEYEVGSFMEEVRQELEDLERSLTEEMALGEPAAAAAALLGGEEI

B1: anti-DKK1/4 antibody (antibody, V domains shown)
VH: QVQLVESGGGLVQPGGSLRLSCAASGFTFSSYWMSWVRQAPGKGLEWVSGISYSGSNTHYADSVKGRFTISRDNSKNTLYLQMNSLRAEDTAVYYCARMGIDLDYWGQGTLVTVSS
VL: DIALTQPASVSGSPGQSITISCTGTSSDVGGFNYVSWYQQHPGKAPKLMIHDGSNRPSGVSNRFSGSKSGNTASLTISGLQAEDEADYYCQSWDVSPITAVFGGGTKLTVLG
notes: also called neutralizing anti-DKK1/4 antibody; NVP-anti-DKK1/4 antibody-NX
Take B1: the binding result (with human DKK2; with human DKK3; in test [7]) was “no binding” in each case. For the same molecule, the Kd in test [1] is 216 pM; in [2], 3.11 pM; with human DKK4 [9], 297 pM; in test [10] it was 2 pM. Besides, the koff in [1] came to 0.000307 s⁻¹; in [2] it was 2.32e-05 s⁻¹; in [8] it was 9e-06 s⁻¹. The kon in test [1] came out at 1.42e+06 M⁻¹ s⁻¹; in [2], 7.45e+06 M⁻¹ s⁻¹; in test [8], 4.6e+06 M⁻¹ s⁻¹. In addition, the “apparent EC50, TCF/LEF luciferase reporter (SuperTopflash, Kremen) assay” value in the test with recombinant human DKK1 [3] stood at 160 pM. The “fold lower affinity than for WT DKK1” value in test [4] was 100 fold. Further, the “fold lower affinity than for DKK1” value in the test with human DKK4 [5] was approximately 100 fold. Also, the “Reactivation of wnt3a signaling (TOPFlash) EC50 (pM)” value came out at 54.2 pM in the test with cynomolgus DKK1, 255 pM with rat DKK1 (Novartis), 80.6 pM with recombinant human DKK1 [6] and 60.5 pM in the test with mouse DKK1 (R&D Systems).

As a reminder, the Kd is the free concentration of one partner at which half of the binding sites on the other are occupied at equilibrium, for simple one-to-one binding. One may read the koff as the first-order rate constant of dissociation. In general, kon refers to the rate constant with which the complex forms.
